Patent US20240084023A1 (NGM BIOPHARMACEUTICALS, published 2024)

How the values were obtained:
[1] = biological target: T1, GCGR extracellular domain alanine mutant F62A (human, UniProt P47871 26-136, limits assumed); test: flow cytometry on transfected 293XP cells
T1 construct: expressed in 293XP cells
T1 chain: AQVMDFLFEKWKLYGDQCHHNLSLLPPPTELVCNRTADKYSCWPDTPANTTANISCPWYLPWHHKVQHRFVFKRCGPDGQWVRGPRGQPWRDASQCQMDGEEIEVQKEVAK
Procedure: (§1) To assist in gathering information on the GCGR epitope that the 6B5 binning group bound to, “alanine scanning mutagenesis” was undertaken. These alanine scanning mutagenesis platform is a technique used for mapping both linear and conformational antigen epitopes by evaluating the effects of point mutations across a target protein. Single residues in a target protein are replaced by alanine one at a time to construct a mutant library. Each variant is assayed for its ability to bind to an antibody of interest. […] Amino acids across the extracellular domain of GCGR were mutated to alanine and the anti-GCGR antibody Hz6B5 was tested for binding to the alanine mutants.
(§2) The wild-type GCGR extracellular domain and the alanine mutants were each transfected into 293XP cells and incubated for 24 hours. Antibody Hz6B5 was incubated with the transfected cells for 30 minutes at 4° C. After washing with PBS/1% BSA/0.1% azide, the cells were incubated with a labeled anti-mouse Fc antibody (Jackson Immunoresearch) for 30 minutes at 4° C. After washing with PBS/1% BSA/0.1% azide, the cells were analyzed using a flow cytometer BD (FACSCalibur instrument) and cytometric analytical software (FlowJo). A serum sample from a mouse immunized with human GCGR was used as positive control to confirm expression of the alanine mutants.

[2] = biological target: T2, GCGR extracellular domain alanine mutant P110A (human, UniProt P47871 26-136, limits assumed); test: flow cytometry on transfected 293XP cells
T2 construct: expressed in 293XP cells
T2 chain: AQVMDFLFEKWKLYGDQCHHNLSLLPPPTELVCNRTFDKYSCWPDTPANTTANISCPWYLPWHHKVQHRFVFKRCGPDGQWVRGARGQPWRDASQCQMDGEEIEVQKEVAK
Procedure: as §1, §2

B1: anti-GCGR antibody Hz6B5 (antibody, V domains shown)
VH: QVQLVQSGAEVKKPGSSVKVSCKASGFTFTNHWLGWVRQAPGQGLEWIGDIYPGGYYINYNEKFKGRVTITADESTSTAYMELSSLRSEDTAVYYCARHTNYGSDYWGQGTTVTVSS
VL: DVVMTQSPLSLPVTLGQPASISCRSSQSIVDSYGNTFLEWYQQRPGQSPRLLIYKVSNRLSGVPDRFSGSGSGTDFTLKISRVEAEDVGVYYCFQGSHVPWTFGQGTKLEIK
notes: Humanized 6B5
With B1 the “% positive cells” value [1] was 62.8% and the “% positive cells” value [2] was 84.7%.
